Assay results taken from patent US20230374147A1.

Molecular target: His-tagged mouse BCMA (Acro Biosystems, BCA-M52H3) (mouse) (UniProt O88472)
Test: ELISA, hybridoma supernatant, coated His-tagged antigen

Chain of His-tagged mouse BCMA (Acro Biosystems, BCA-M52H3) (mouse) (O88472 1-49 limits assumed): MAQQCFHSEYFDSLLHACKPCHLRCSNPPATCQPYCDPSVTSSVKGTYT

ELISA values (OD 450 nm): 0.025 OD
B1: 539-SP5-D7 (antibody produced by the hybridoma) (antibody, V domains shown)
VH: EVMLVDSGGNLVKPGGSLKLSCAASGFTFSNYVISWVRQTPEKRLEWVATISTVGTNTYYPDSVRGRFTISRDNAENTLYLQMSSLRSEDTAIYYCSRHKYGYDDPSYAMDYWGQGTSVTVSS
VL: QLVLTQSSSASFSLGASAKLTCTLSSQHSTYTIEWYQQQPLKPPKYVMELKKDGSHSTGDGIPDRFSGSSSGADRYLSISNIQAEDEAIYICGVGDTVKEQFVYVFGGGTKVTVL
